According to article PMC4546533:

Columns and labels:
[1] = biological target: MmpL11-D1 (MmpL11 residues 41 – 187) (Mycobacterium tuberculosis) (UniProt P9WJT9); assay: BLI
[2] = biological target: MmpL3-D1 (MmpL3 residues 32 – 187) (Mycobacterium tuberculosis) (UniProt P9WJV5); assay: BLI
Chain of UniProt P9WJV5 (P9WJV5 32-187): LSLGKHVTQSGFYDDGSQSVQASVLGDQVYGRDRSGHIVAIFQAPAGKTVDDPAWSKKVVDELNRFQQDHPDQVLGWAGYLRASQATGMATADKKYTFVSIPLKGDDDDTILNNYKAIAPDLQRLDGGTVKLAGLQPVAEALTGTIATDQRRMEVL

Chain of UniProt P9WJT9 (P9WJT9 41-187): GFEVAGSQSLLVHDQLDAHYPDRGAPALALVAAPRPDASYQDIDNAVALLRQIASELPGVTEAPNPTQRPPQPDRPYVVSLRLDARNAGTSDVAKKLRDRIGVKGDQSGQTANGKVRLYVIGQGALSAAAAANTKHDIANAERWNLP

## MmpL11-D2 (MmpL11 residues 390 – 529) (from UniProt P9WJT9 390-529) (domain or fragment)
[1]
  Kd: 4.5 µM

## MmpL3-D2 (MmpL3 residues 419 – 560) (from UniProt P9WJV5 419-560) (domain or fragment)
[2]
  Kd: 4.1 µM
